Laboratory results taken from patent US9238802B2, “E. coli transformant, method for producing flavin-bound glucose dehydrogenase using the same, and mutant flavin-bound glucose dehydrogenases” (KIKKOMAN CORPORATION, priority 2010, dated 2016).

B1: NS3: GDH with a deletion to the 27th Ser and Met added to the 28st Ser (SEQ ID NO: 30) (protein)
chain: MSTDTYDYVIVGGGVAGLALASRISENKDVTVAVLESGPNANDRFVVYAPGMYGQAVGTDLCPLIPTTPQENMGNRSLTIATGRLLGGGSAINGLVWTRGGLKDYDAWEELGNPGWNGANLFKYFKKVENFTPPTPAQIEYGATYQKSAHGKKGPIDVSFTNYEFSQSASWNASLETLDFTALPDILNGTLAGYSTTPNILDPETVQRVDSYTGYIAPYTSRNNLNVLANHTVSRIQFAPKNGSEPLKATGVEWYPTGNKNQKQIIKARYEVIISSGAIGSPKLLEISGIGNKDIVSAAGVESLIDLPGVGSNMQDHVHAITVSTTNITGYTTNSVFVNETLAQEQREEYEANKTGIWATTPNNLGYPTPEQLFNGTEFVSGKEFADKIRNSTDEWANYYASTNASNVELLKKQYAIVASRYEENYLSPIEINFTPGYEGSGNVDLQNNKYQTVNHVLIAPLSRGYTHINSSDVEDHSVINPQYYSHPMDIDVHIASTKLAREIITASPGLGDINSGEIEPGMNITSEDDLRSWLSNNVRSDWHPVGTCAMLPKELGGVVSPALMVYGTSNLRVVDASIMPLEVSSHLMQPTYGIAEKAADIIKNFYKTQHKNQN
modifications: NS3
B2: NS2: GDH with a deletion to the 20th Ala and the 21st Gln substituted by Met (SEQ ID NO: 25) (protein)
chain: MQDTNSSSTDTYDYVIVGGGVAGLALASRISENKDVTVAVLESGPNANDRFVVYAPGMYGQAVGTDLCPLIPTTPQENMGNRSLTIATGRLLGGGSAINGLVWTRGGLKDYDAWEELGNPGWNGANLFKYFKKVENFTPPTPAQIEYGATYQKSAHGKKGPIDVSFTNYEFSQSASWNASLETLDFTALPDILNGTLAGYSTTPNILDPETVQRVDSYTGYIAPYTSRNNLNVLANHTVSRIQFAPKNGSEPLKATGVEWYPTGNKNQKQIIKARYEVIISSGAIGSPKLLEISGIGNKDIVSAAGVESLIDLPGVGSNMQDHVHAITVSTTNITGYTTNSVFVNETLAQEQREEYEANKTGIWATTPNNLGYPTPEQLFNGTEFVSGKEFADKIRNSTDEWANYYASTNASNVELLKKQYAIVASRYEENYLSPIEINFTPGYEGSGNVDLQNNKYQTVNHVLIAPLSRGYTHINSSDVEDHSVINPQYYSHPMDIDVHIASTKLAREIITASPGLGDINSGEIEPGMNITSEDDLRSWLSNNVRSDWHPVGTCAMLPKELGGVVSPALMVYGTSNLRVVDASIMPLEVSSHLMQPTYGIAEKAADIIKNFYKTQHKNQN
modifications: NS2
B3: NS1: GDH with a deletion to the 20th Ala and Met added to the 21st Gln (SEQ ID NO: 23) (protein)
chain: MQQDTNSSSTDTYDYVIVGGGVAGLALASRISENKDVTVAVLESGPNANDRFVVYAPGMYGQAVGTDLCPLIPTTPQENMGNRSLTIATGRLLGGGSAINGLVWTRGGLKDYDAWEELGNPGWNGANLFKYFKKVENFTPPTPAQIEYGATYQKSAHGKKGPIDVSFTNYEFSQSASWNASLETLDFTALPDILNGTLAGYSTTPNILDPETVQRVDSYTGYIAPYTSRNNLNVLANHTVSRIQFAPKNGSEPLKATGVEWYPTGNKNQKQIIKARYEVIISSGAIGSPKLLEISGIGNKDIVSAAGVESLIDLPGVGSNMQDHVHAITVSTTNITGYTTNSVFVNETLAQEQREEYEANKTGIWATTPNNLGYPTPEQLFNGTEFVSGKEFADKIRNSTDEWANYYASTNASNVELLKKQYAIVASRYEENYLSPIEINFTPGYEGSGNVDLQNNKYQTVNHVLIAPLSRGYTHINSSDVEDHSVINPQYYSHPMDIDVHIASTKLAREIITASPGLGDINSGEIEPGMNITSEDDLRSWLSNNVRSDWHPVGTCAMLPKELGGVVSPALMVYGTSNLRVVDASIMPLEVSSHLMQPTYGIAEKAADIIKNFYKTQHKNQN
modifications: NS1
B4: GOD derived from Aspergillus niger: commercial glucose oxidase derived from Aspergillus niger (GOD, biozyme laboratories) (protein, UniProt P13006 17-605, looked up)
Glucose oxidase: LPHYIRSNGIEASLLTDPKDVSGRTVDYIIAGGGLTGLTTAARLTENPNISVLVIESGSYESDRGPIIEDLNAYGDIFGSSVDHAYETVELATNNQTALIRSGNGLGGSTLVNGGTWTRPHKAQVDSWETVFGNEGWNWDNVAAYSLQAERARAPNAKQIAAGHYFNASCHGVNGTVHAGPRDTGDDYSPIVKALMSAVEDRGVPTKKDFGCGDPHGVSMFPNTLHEDQVRSDAAREWLLPNYQRPNLQVLTGQYVGKVLLSQNGTTPRAVGVEFGTHKGNTHNVYAKHEVLLAAGSAVSPTILEYSGIGMKSILEPLGIDTVVDLPVGLNLQDQTTATVRSRITSAGAGQGQAAWFATFNETFGDYSEKAHELLNTKLEQWAEEAVARGGFHNTTALLIQYENYRDWIVNHNVAYSELFLDTAGVASFDVWDLLPFTRGYVHILDKDPYLHHFAYDPQYFLNELDLLGQAAATQLARNISNSGAMQTYFAGETIPGDNLAYDADLSAWTEYIPYHFRPNYHGVGTCSMMPKEMGGVVDNAARVYGVQGLRVIDGSIPPTQMSSHVMTVFYAMALKISDAILEDYASMQ
B5: NS4: GDH with a deletion to the 27th Ser and the 28st Ser substituted by Met (SEQ ID NO: 32) (protein)
chain: MTDTYDYVIVGGGVAGLALASRISENKDVTVAVLESGPNANDRFVVYAPGMYGQAVGTDLCPLIPTTPQENMGNRSLTIATGRLLGGGSAINGLVWTRGGLKDYDAWEELGNPGWNGANLFKYFKKVENFTPPTPAQIEYGATYQKSAHGKKGPIDVSFTNYEFSQSASWNASLETLDFTALPDILNGTLAGYSTTPNILDPETVQRVDSYTGYIAPYTSRNNLNVLANHTVSRIQFAPKNGSEPLKATGVEWYPTGNKNQKQIIKARYEVIISSGAIGSPKLLEISGIGNKDIVSAAGVESLIDLPGVGSNMQDHVHAITVSTTNITGYTTNSVFVNETLAQEQREEYEANKTGIWATTPNNLGYPTPEQLFNGTEFVSGKEFADKIRNSTDEWANYYASTNASNVELLKKQYAIVASRYEENYLSPIEINFTPGYEGSGNVDLQNNKYQTVNHVLIAPLSRGYTHINSSDVEDHSVINPQYYSHPMDIDVHIASTKLAREIITASPGLGDINSGEIEPGMNITSEDDLRSWLSNNVRSDWHPVGTCAMLPKELGGVVSPALMVYGTSNLRVVDASIMPLEVSSHLMQPTYGIAEKAADIIKNFYKTQHKNQN
modifications: NS4

Tests used:
Type in all cases: biochemical
[1] = Substrate specificity of GDHs produced by the E. coli transformant; settings: according to Examples 3 and 5
[2] = GOD activity (4-AA/TOOS/POD assay); settings: 37° C., 131 mM D-glucose
Procedure: GDH activity was measured as described in Example 1. GOD activity was measured using 4-aminoantipyrine (4-AA) and N-ethyl-N-(2-hydroxy-3-sulfopropyl)-3-methylaniline (TOOS) as described below. To initiate a reaction, 30.0 mL of 100 mM phosphate buffer (pH 7.0), 6.0 mL of 833 mM D-glucose solution, 0.3 mL of 25 mM 4-AA solution, 0.3 mL of 40 mM TOOS solution, and 0.3 mL of 500 U/mL POD solution were mixed, of which 3.0 mL was transferred into a test tube and incubated at 37° C. for five minutes, and 0.1 mL of an enzyme sample solution was added. An increase in the absorbance at 555 nm (ΔA555) per minute due to the progress of the enzyme reaction was determined to calculate GOD activity according to the following formula.
The formula indicates 3.1 as the liquid volume (mL) of reaction reagent plus enzyme reagent, 32.8 as millimolar extinction coefficient (cm^2/μmol) under the activity assay conditions, 0.5 as the number of quinoneimine dye molecules generated when one H2O2 molecule is reduced, 0.1 as the liquid volume (mL) of an enzyme solution, 1.0 as the optical path length (cm) of a cell, ΔA555blank as an increase in the absorbance at 555 nm per minute when 10 mM acetate buffer, instead of an enzyme sample solution, is added to initiate a reaction, and df as a dilution factor.

[3] = GDH activity of purified enzymes (DCIP/PMS assay); settings: purified enzyme
Procedure: Specifically, the activities of the flavin-bound GDHs are measured according to the following procedures. To initiate a reaction, 1.79 mL of 100 mM phosphate buffer (pH7.0), 0.08 mL of 1.25 M D-glucose solution, and 0.01 mL of 20 mM DCIP solution are mixed, followed by incubation at 37° C. for 5 minutes, and, subsequently, 0.02 mL of 20 mM PMS solution and 0.1 mL of an enzyme sample solution are added. Absorbance is measured at the initiation of the reaction and over time to determine a decrease in the absorbance at 600 nm (ΔA600) per minute due to the progress of the enzyme reaction and calculate flavin-bound GDH activity according to the following formula. […]
Solutions were mixed according to the following procedures, followed by absorbance measurement to examine GDH activity in the crude enzyme solution. […] A decrease in the absorbance at 600 nm (ΔA600) per minute due to the progress of the enzyme reaction after the initiation of the reaction was determined to calculate GDH activity according to the following formula. […]
GDH activity was measured as described in Example 1. GOD activity was measured using 4-aminoantipyrine (4-AA) and N-ethyl-N-(2-hydroxy-3-sulfopropyl)-3-methylaniline (TOOS) as described below. […] An increase in the absorbance at 555 nm (ΔA555) per minute due to the progress of the enzyme reaction was determined to calculate GOD activity according to the following formula.

Row | Molecule | substrate specificity (in words) [1] | GOD activity [2] [U/mL] | GDH activity [3] [U/mL]
1 | B1 | almost comparable with that of the purified GDH obtained in Example 2 |  | 
2 | B2 | almost comparable with that of the purified GDH obtained in Example 2 |  | 
3 | B3 | almost comparable with that of the purified GDH obtained in Example 2 |  | 
4 | B4 |  | 9.38 | 3.50
5 | B5 | almost comparable with that of the purified GDH obtained in Example 2 |  | 
